Laboratory results from patent US8598081B2, “Specific delivery of agrochemicals” (priority 2010, dated 2013).

Target: T1, potato lectin (Solanum tuberosum, UniProt Q9S8M0)
T1 construct: purchased Sigma
T1 sequence (Q9S8M0 whole entry, looked up): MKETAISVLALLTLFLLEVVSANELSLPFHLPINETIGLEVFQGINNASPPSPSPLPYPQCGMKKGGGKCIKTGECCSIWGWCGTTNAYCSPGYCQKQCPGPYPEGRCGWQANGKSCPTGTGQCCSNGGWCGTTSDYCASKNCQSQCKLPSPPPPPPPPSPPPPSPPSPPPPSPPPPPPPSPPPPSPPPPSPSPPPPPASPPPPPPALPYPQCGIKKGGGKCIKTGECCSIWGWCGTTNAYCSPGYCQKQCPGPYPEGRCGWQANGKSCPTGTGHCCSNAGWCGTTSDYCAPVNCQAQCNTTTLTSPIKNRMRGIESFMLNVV
Test: ELISA-like assay, microcapsules with monovalent or bivalent VHH, potato lectin
Type: binding
Set-up: Surface area of bound microcapsules: unit not given here
Conditions: for Surface area of bound microcapsules: Uvitex microcapsules
From the text: Bivalent VHH constructs were produced in bacteria by cloning two VHH sequences in tandem into the pASF22 vector, creating a fusion of two VHH with a 9 glycine-serine linker (GGGGSGGGS (SEQ ID NO:50)) in between the two VHH. pASF22 is an in-house produced pMES derivative. The tags that were used were C-terminal c-Myc (EQKLISEEDLN (SEQ ID NO:51)) and hexahistidine (HHHHHH (SEQ ID NO:52)). A triple alanine linker (AAA) was placed in between the C-terminal end of the VHH and the c-Myc tag and a glycine-alanine-alanine (GAA) linker was used in between the C-terminal end of the c-Myc tag and the hexahistidine tag. The complete sequence C-terminal of the bivalent VHH that was used: AAA-EQKLISEEDLN-GAA-HHHHHH (SEQ ID NO:53). Fresh overnight cultures were produced by starting from colony streaks and inoculation of 2×TY media supplemented with 2% glucose and 100 μg/ml ampicillin. The overnight cultures were used to inoculate fresh cultures 1:100 in 2×TY media with 0.1% glucose and 100 μg/ml ampicillin. After growing at 37° C. in a shaking incubator for 3 hours, IPTG was added to a 1 mM final concentration and recombinant bivalent VHH were produced during an additional incubation for 4 hours. Cells were spun down and resuspended in 1/50th of the original culture volume of PBS and incubated with head-over-head rotation at 4° C. for 30 minutes. Spheroplasts were spun down by centrifugation at 3,000 g and 4° C. for 20 minutes. Supernatants were transferred to fresh tubes and centrifuged again at 3,000 g and 4° C. for 20 minutes. The supernatant was collected and sodium chloride concentration was adjusted to 500 mM and imidazole concentration to 20 mM. Hexahistidine-tagged bivalent VHH were purified from the extracts using HisTrap FF Crude 5 ml IMAC columns (GE Lifesciences) and HiLoad 16/60 Superdex 75 prep grade gel filtration column (GE Lifesciences) on an AKTAxpress system (GE Lifesciences) following standard procedures.
Next, it was investigated if binding of microcapsules to surfaces could be improved by using targeting agents comprising multivalent VHH. A series of parallel couplings was performed with equal amounts of monovalent VHH, bivalent VHH, and unrelated VHH. Success of coupling of VHH and multivalent VHH were analyzed as described in Example 4. An ELISA-like assay was performed using high bind half area microplates (Greiner Bio-One) coated with 5 μg/well potato lectin. Control wells included blank wells or wells coated with unrelated antigens. Plates were washed three times with PBS with 0.05%-TWEEN®-20 and blocked with 5% skimmed milk in PBS for 1 to 2 hours. VHH-coupled Uvitex-containing microcapsules were diluted to appropriate densities in 1% skimmed milk in PBS with 0.05%-TWEEN®-20. Five-fold serial dilution series were prepared and allowed to bind to the surface to compare binding of microcapsules coupled with monovalent or bivalent VHH. Microcapsules were added to the antigen-coated or control wells and allowed to bind for 1 hour. Unbound microcapsules were removed by washing five times with PBS with 0.05%-TWEEN®-20. The bottoms of ELISA plate wells were analyzed for bound microcapsules on a macrozoom microscope system (Nikon). Microcapsules were counted using Volocity image analysis software (Perkin Elmer). A DAPI filter was used to visualize Uvitex microcapsules. […] The surface area of microcapsules with coupled bivalent VHH was 15-fold above the surface area of blank microcapsules applied at this microcapsule density while the surface area of microcapsules with monovalent VHH was only six-fold above the surface area of blank microcapsules applied at this microcapsule density. This difference could be explained by an increase in binding strength due to additional avidity of the bivalent VHH compared to monovalent VHH, it could also be that the use of bivalent VHH increases flexibility and spacer length of the coupled targeting agents on microcapsules, or a combination of both.

B1: Microcapsules containing uvitex OB VHH 3E6: polyurea microcapsules containing the fluorescent tracer Uvitex OB, coupled with (monovalent) VHH 3E6 (conjugate)
VHH: QVQLQESGGGLVQPGGTLSLSCAASGFNVRWYGMGWFRQAPGKEREGVACISALQETTAYADSVKGRFTLSRDNPKNTLSLQMNNLQPEDTGVYYCATTDCDDSSRMTYTSYLGQGTQVTVSS
modifications: left off: small tags and cut ends
notes: polyurea microcapsules containing the fluorescent tracer Uvitex OB, coupled with (monovalent) VHH 3E6
surface area of bound microcapsules above the surface area of blank microcapsules (application of 25-fold less microcapsules, potato lectin): six-fold | Surface area of bound microcapsules (no coating (first series, with potato lectin rows), surface coverage 100%): 74.536 | Surface area of bound microcapsules (potato lectin, surface coverage 4%): 59.377 | Surface area of bound microcapsules (potato lectin, surface coverage 20%): 307.478 | Surface area of bound microcapsules (potato lectin, surface coverage 100%): 415.773
